The chains are these.
B1: ACI-7079-3112H1-Ab1 (antibody, V domains shown)
VH: EVQLQQSGPELVKPGASVKISCKASGYTFSDYFMNWVKQSHGKSLEWIGDINPNNGGSSYIQKFKGKATLTVDKSSTTAYMELRSLTSEDSAVYYCARGSNYAMDSWGQGTSVTVSS
VL: DIVMSQSPSSLAVSAGEKVTMSCKSSQSLLNSRTRKNYLAWYQQKPGQSPKLLIYWASTRESGVPDRFTGSGSGTDFTLTISSVQAEDLAVYYCKQSYDLWTFGGGTKLEIK
notes: mouse hybridoma mAb; VH/VL only; also called 3112H1F3
B2: ACI-8032-6301G2-Ab2 (antibody, V domains shown)
VH: EVQLQQSGPELVKPGASVKISCKASGYTFTDYFMNWVKQSHGKSLEWIGDINPNIGVTNYNPKFKDRATLTVDKSSSSAYMELRSLTSEDSTVYYCARGGGSNPLYYAMDYWGQGTSVTVSS
VL: B1 VL with Y93F
notes: mouse hybridoma mAb; VH/VL only; also called 6301G2D11
B3: ACI-8033-6402E2-Ab2 (antibody, V domains shown)
VH: EVQLQHSGPDLVKPGASVKISCKASGYTFTDYYMNWVKQSHGKSLEWIGDINPNNGDTTYNQKFKGRATLTVDKSSSTAYMELRSLTSEDSAVYYCARSGSNYYAMDSWGQGTSVTVSS
VL: B1 VL with K18R, L30F, T78S, T80N
notes: mouse hybridoma mAb; VH/VL only; also called 6402E2E4
B4: ACI-8030-6106F5-Ab1 (antibody, V domains shown)
VH: QVQLQQSGPELVKPGASVKISCKASGYSFTTYYIHWMKQRPGQGPEWIGWIYPGRGYTKYNEKFKDKAAQTADTSSNTAYMQLSSLRSEDSAVYYCARDWETGFPYWGQGTLVTVSA
VL: DIVLTQSPASLAVSLGQRATISCKASQSVDYGGDSWLNWYQQKPGQPPKLLIYAASNLDSGIPARFGGSGSGTDFTLNIHPVEEEDAATYYCQQSGEDPFTFGGGTNLEIK
notes: mouse hybridoma mAb; VH/VL only; also called 6106F5B10
B5: ACI-8032-6304F3-Ab1 (antibody, V domains shown)
VH: QVQLQQSGAELARPGASVKLSCKASGYTFTSYGVSWVKQRTGQGLEWIGEIYPRSGNTYYNEKFKGKATLTADKSSSTAYMELRSLTSEDSAVYFCASESYYGDYDWYFDVWGTGTTVTVSS
VL: DVLMTQIPLSLPVSPGDQVSISCRSSQSIVHSNGNTYLEWYLQKPGQSPKPLIYKVSNRFSGVPDRFSGSGSGTDFTLKISRVEAEDLGVYYCFQGSHVPPTFGGGTKLEIK
notes: mouse hybridoma mAb; VH/VL only; also called 6304F3D12
B6: ACI-8032-6301C8-Ab2 (antibody, V domains shown)
VH: B5 VH with A16T, S31T, V34I, S75P, D106A
VL: B5 VL with P15L, V19A, Y41H, P51L, K55E, K79N
notes: mouse hybridoma mAb; VH/VL only; also called 6301C8G12
B7: ACI-8032-6314A3-Ab3 (antibody, V domains shown)
VH: B5 VH
VL: B5 VL with S20F
notes: mouse hybridoma mAb; VH/VL only; also called 6314A3E4
B8: ACI-8032-6301A10-Ab2 (antibody, V domains shown)
VH: B5 VH with V34I
VL: B5 VL with I7T, P15L, V19A, Q27H, V30E, Y41C, S48P, P51F, K79R
notes: mouse hybridoma mAb; VH/VL only; also called 6301A10E12
B9: ACI-8032-6307F1-Ab2 (antibody, V domains shown)
VH: B5 VH with V34M, A72S, A79S, D106A
VL: B5 VL with I7T, P15L, V19A, I29V, N35I, P51L, D75Y
notes: mouse hybridoma mAb; VH/VL only; also called 6307F1H10
B10: ACI-8031-6207G10-Ab1 (antibody, V domains shown)
VH: QVQLQQSGAELVKPGASVKISCKASGYAFSSYWMNWVKQRPGKGLEWIGQIYPGDGDTNYNGKFKGKATLTADRSSSTAYMQLSSLTSEDSAVYFCAITHYDYWGQGTTLTVSS
VL: DILLTQSPAILSVSPGDRVSFSCRASQSIGTRIHWYQQRTNGSPRLLIKYASESISGTPSRFSGSGSGTDFTLSINSVESEDIADYYCQQSNSWPLTFGAGTKLELK
notes: mouse hybridoma mAb; VH/VL only; also called 6207G10E6
B11: ACI-7079-3106F2-Ab1 (antibody, V domains shown)
VH: EVQLQQSGAELVRPGASVKLSCTASGFNVKDDYMHWVKQRPEQGLEWIGWIDPENGDTEYASKFQGKATLTADTSSNTAYLQLSGLTSVDTAVYYCTTAGTSPYYFDYWGQGTTLTVSS
VL: DIVMTQSQKFMSTSVGDRVSVTCKASQNVGTNVAWYQQKVGQSPKALIYSASYRYSGVPDRFTGSGSGTDFTLTISNVQSEDLADYFCQQYNSYPLTFGSGTKLEIK
notes: mouse hybridoma mAb; VH/VL only; also called 3106F2C8
B12: ACI-7079-3104F12-Ab2 (antibody, V domains shown)
VH: QVTLKESGPGIVQPSQTLSLTCSFSGFSLNTFGLGVGWIRQPSGKGLDWLTHIWWDDDKYYNPALKSRLTISKDTSKNQVFLKIANVDTADTATYYCARIGDFYGSRGYFDVWGTGTTVTVSS
VL: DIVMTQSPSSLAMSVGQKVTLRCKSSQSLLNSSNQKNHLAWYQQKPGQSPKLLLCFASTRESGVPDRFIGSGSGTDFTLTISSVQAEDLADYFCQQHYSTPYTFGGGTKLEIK
notes: mouse hybridoma mAb; VH/VL only; also called 3104F12F2H7
B13: ACI-7079-3107E6-Ab1 (antibody, V domains shown)
VH: B12 VH with V12L, N30S, L34M, D48E, T75A, V80M, Y96F, F103Y, Y109F
VL: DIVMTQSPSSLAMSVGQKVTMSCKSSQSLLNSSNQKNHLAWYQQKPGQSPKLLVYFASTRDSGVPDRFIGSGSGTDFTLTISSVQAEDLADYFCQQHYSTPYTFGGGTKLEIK
notes: mouse hybridoma mAb; VH/VL only; also called 3107E6A3
B14: ACI-8033-6403A4-Ab1 (antibody, V domains shown)
VH: EVQLVESGGGLVQPKGSLKLSCAASGFSFNTYAMNWVRQAPGKGLEWVARIRSKSNNYTTYYADSVKDRFTISRDDSESMLYLQMNNLKTEDTAMYYCVRTMDYWGQGTSVTVSS
VL: QIVLTQSPAIMSASLGEEITLTCSASSSISYMHWYQQKSGTSPKLLIHSTFNLASGVPSRFSGSGSGTFYSLTISSVEAEDAADYYCHQWSSYYTFGGGTKLEIK
notes: mouse hybridoma mAb; VH/VL only; also called 6403A4A3

Substitutions are numbered along the chain they refer to.

A word on the Kd: it is a measure of binding affinity in units of concentration. The low end stands for tighter binding, the high end for weaker binding. Broadly, the koff is the rate constant with which the complex falls apart. Usually kon stands for the second-order rate constant of association. A lower kon goes with slower complex formation.

One assay concerns the target monomeric alpha-synuclein (UniProt P37840 1-140). As to the kind of experiment: SPR, captured mAb. As for the experimental part: (§1) Non-covalent immobilization of alpha-synuclein antibodies was performed using a target immobilization method of 2000 response units (RU). Antibodies were diluted in 10 mM sodium acetate pH 5.5 (GE Healthcare, BR-1003-52) to a final concentration of 5 μg/mL.
(§2) Binding affinity of alpha-synuclein antibodies to monomeric or fibrillar alpha-synuclein species was performed using a single-cycle kinetics method. The instrument was primed with 1×HBS-P+ buffer (10× stock from GE Healthcare, BR-1003-52 diluted in Milli-Q water). Injections of monomeric alpha-synuclein (aSyn) (Boston Biochem, SP-485), increasing in concentration from 0.62-50 nM prepared from serial 2-fold dilutions, were performed with contact times of 300 sec/injection at a flow rate of 30 μL/min. A dissociation phase of 900 sec followed the final 50 nM injection. Regeneration of the sensor to the goat anti-mouse antibody layer was achieved using 3 regenerations of 10 mM Glycine pH 1.7. […] Regeneration of the sensor to the goat anti-mouse antibody layer was achieved using 3 regenerations of 10 mM Glycine pH 1.7. Results obtained from single-cycle kinetics were evaluated by Biacore T200 evaluation software with 1:1 binding homogenous Langmuir model (with a global Rmax) with Cycle 5 as a blank subtraction. The following kinetic parameters were obtained: on-rate (ka), off-rate (kd), affinity constant (KD, ratio of kd by ka), maximum response (Rmax), and goodness of fit (Chi2).
(§3) Non-covalent capture of the alpha-synuclein antibodies was performed in three separate runs.
(In general: SPR reads the build-up and loss of mass on a sensor chip optically.)
In turn, B1 gave a Kd of 10.5 nM, a koff of 0.00225 s⁻¹ and a kon of 214000 M⁻¹ s⁻¹.

As to B2, the affinity, expressed as Kd, was 606 nM; the koff was found to be 0.000237 s⁻¹; the kon worked out at 390 M⁻¹ s⁻¹.

Consider B3, for which binding was put at a Kd of 3.26 nM, the koff was 0.000651 s⁻¹ and the kon amounted to 200000 M⁻¹ s⁻¹.

In the case of B4, the dissociation constant Kd is 1.95 nM, the koff came to 0.00023 s⁻¹ and the kon is 118000 M⁻¹ s⁻¹.

With B5, the Kd turned out to be 4.75 nM, the koff amounted to 0.016 s⁻¹ and the kon came out at 3.37e+06 M⁻¹ s⁻¹.

B6: the dissociation constant (Kd) was determined as 8.76 nM, the koff turned out to be 0.00329 s⁻¹ and the kon came out at 376000 M⁻¹ s⁻¹.

In the case of B7, the Kd amounted to 16.7 nM, the koff amounted to 0.0382 s⁻¹ and the on-rate (kon) is 2.28e+06 M⁻¹ s⁻¹.

In turn, B8 had a Kd of 11.5 nM, a koff of 0.00517 s⁻¹ and a kon of 450000 M⁻¹ s⁻¹.

Regarding B9, the Kd was 19 nM, the koff amounted to 0.0248 s⁻¹ and the association rate constant (kon) was 1.3e+06 M⁻¹ s⁻¹.

Molecule B10 yielded a Kd of 3.67 nM, a koff of 0.000314 s⁻¹ and a kon of 85300 M⁻¹ s⁻¹.

Turning to B11, binding was characterised by a dissociation constant (Kd) of 392 nM, the off-rate constant (koff) was found to be 0.135 s⁻¹ and the kon is 344000 M⁻¹ s⁻¹.

On to B12, for which the Kd amounted to 0.51 nM, the koff was 0.000452 s⁻¹ and the on-rate (kon) worked out at 892000 M⁻¹ s⁻¹.

Molecule B13 yielded a Kd of 1.12 nM, a koff of 0.000859 s⁻¹ and a kon of 765000 M⁻¹ s⁻¹.

B14 displayed a Kd of 96.4 nM, a koff of 0.044 s⁻¹ and a kon of 457000 M⁻¹ s⁻¹.

The target in the next assay is alpha-synuclein fibrils (UniProt P37840 1-140). Put plainly: SPR, captured mAb. As to the method: as §1, §2, §3
B1 returned a Kd of 19.3 nM, an off-rate (koff) of 0.000216 s⁻¹ and a kon of 11200 M⁻¹ s⁻¹.

Molecule B2 had a dissociation constant (Kd) of 3350 nM and a koff of 0.000353 s⁻¹.

Molecule B3 showed a Kd of 134 nM, a koff of 0.000987 s⁻¹ and a kon of 7350 M⁻¹ s⁻¹.

Take B4: binding was put at a Kd of 16.7 nM, the koff worked out at 0.000232 s⁻¹ and the on-rate (kon) was determined as 13900 M⁻¹ s⁻¹.

As to B5, binding was characterised by a dissociation constant (Kd) of 40.6 nM, the koff was 0.000527 s⁻¹ and the kon is 13000 M⁻¹ s⁻¹.

B6 showed an equilibrium dissociation constant (Kd) of 42.8 nM, a koff of 0.00355 s⁻¹ and an on-rate constant (kon) of 83000 M⁻¹ s⁻¹.

Molecule B7 came in with a Kd of 41.5 nM, a koff of 0.000325 s⁻¹ and a kon of 7830 M⁻¹ s⁻¹.

With B8, binding was put at a Kd of 2.69 nM, the dissociation rate constant (koff) was 0.000193 s⁻¹ and the kon is 71800 M⁻¹ s⁻¹.

B9 registered a Kd of 26 nM, a koff of 0.000691 s⁻¹ and a kon of 26500 M⁻¹ s⁻¹.

With B10, binding was put at a Kd of 13.3 nM, the koff was 0.00015 s⁻¹ and the kon turned out to be 11300 M⁻¹ s⁻¹.

With B11, the Kd is 31.5 nM, the koff was determined as 0.000367 s⁻¹ and the kon turned out to be 11700 M⁻¹ s⁻¹.

In the case of B12, the Kd was found to be 3.73 nM, the off-rate constant (koff) worked out at 0.000268 s⁻¹ and the kon turned out to be 71800 M⁻¹ s⁻¹.

In the case of B13, the Kd is 2.66 nM, the koff was 0.000146 s⁻¹ and the association rate constant (kon) was determined as 55100 M⁻¹ s⁻¹.

B14: the Kd came out at 37.9 nM, the koff turned out to be 0.000599 s⁻¹ and the kon came out at 15800 M⁻¹ s⁻¹.

The record behind these values is patent US20250340623A1 (AC IMMUNE, published 2025).
